Among the data in the Human Domainome abundance scans (Beltran et al. 2025) are abundance fitness values, retold here.

± gives the uncertainty stated by the source.

This series is described as follows: abundance fitness (aPCA) (normalised: wild type 0, dead -1); higher = more abundant; growth selection in yeast, the domain comes from the species named. Particulars: Homo sapiens.
Substance “BAG family molecular chaperone regulator 3 D20E, O95817” returned an abundance fitness of -0.018 ± 0.1.

Take “BAG family molecular chaperone regulator 3 D20F, O95817”: the abundance fitness is -0.09 ± 0.32.

In turn, “BAG family molecular chaperone regulator 3 D20G, O95817” displayed an abundance fitness of 0.08 ± 0.06.

Turning to “BAG family molecular chaperone regulator 3 D20I, O95817”, the abundance fitness is -0.558 ± 0.37.

For the substance “BAG family molecular chaperone regulator 3 D20K, O95817”, the abundance fitness is -0.429 ± 0.23.

Take “BAG family molecular chaperone regulator 3 D20L, O95817”: the abundance fitness is -0.495 ± 0.088.

As to “BAG family molecular chaperone regulator 3 D20M, O95817”, the abundance fitness was 0.365 ± 0.15.

As for “BAG family molecular chaperone regulator 3 D20N, O95817”, the abundance fitness turned out to be 0.044 ± 0.13.

Consider “BAG family molecular chaperone regulator 3 D20P, O95817”, for which the abundance fitness was -0.22 ± 0.19.

“BAG family molecular chaperone regulator 3 D20Q, O95817” registered an abundance fitness of -0.789 ± 0.33.

For “BAG family molecular chaperone regulator 3 D20R, O95817”, the abundance fitness was -0.228 ± 0.085.

The substance “BAG family molecular chaperone regulator 3 D20S, O95817” yielded an abundance fitness of 0.15 ± 0.087.

Turning to “BAG family molecular chaperone regulator 3 D20V, O95817”, the abundance fitness was -0.241 ± 0.074.

Substance “BAG family molecular chaperone regulator 3 D20W, O95817” gave an abundance fitness of -0.42 ± 0.15.

Turning to “BAG family molecular chaperone regulator 3 D20Y, O95817”, the abundance fitness was -0.479 ± 0.3.

In the case of “BAG family molecular chaperone regulator 3 D31A, O95817”, the abundance fitness is -0.22 ± 0.12.

“BAG family molecular chaperone regulator 3 D31C, O95817” gave an abundance fitness of -0.334 ± 0.074.

Consider “BAG family molecular chaperone regulator 3 D31E, O95817”, for which the abundance fitness amounted to 0.166 ± 0.077.

Consider “BAG family molecular chaperone regulator 3 D31F, O95817”, for which the abundance fitness is -1.13 ± 0.34.

Take “BAG family molecular chaperone regulator 3 D31G, O95817”: the abundance fitness was -0.491 ± 0.084.

The substance “BAG family molecular chaperone regulator 3 D31K, O95817” showed an abundance fitness of -0.477 ± 0.28.

Turning to “BAG family molecular chaperone regulator 3 D31L, O95817”, the abundance fitness is -0.732 ± 0.1.

The substance “BAG family molecular chaperone regulator 3 D31M, O95817” gave an abundance fitness of -0.182 ± 0.15.

On to “BAG family molecular chaperone regulator 3 D31N, O95817”, for which the abundance fitness was -0.813 ± 0.26.

The substance “BAG family molecular chaperone regulator 3 D31P, O95817” registered an abundance fitness of -0.886 ± 0.22.

Substance “BAG family molecular chaperone regulator 3 D31Q, O95817” displayed an abundance fitness of -0.557 ± 0.22.

In turn, “BAG family molecular chaperone regulator 3 D31R, O95817” returned an abundance fitness of -0.473 ± 0.071.

“BAG family molecular chaperone regulator 3 D31S, O95817”: the abundance fitness is -0.67 ± 0.2.

Regarding “BAG family molecular chaperone regulator 3 D31T, O95817”, the abundance fitness was -0.56 ± 0.18.

Substance “BAG family molecular chaperone regulator 3 D31V, O95817” yielded an abundance fitness of -0.433 ± 0.12.

“BAG family molecular chaperone regulator 3 D31W, O95817” gave an abundance fitness of -0.33 ± 0.13.

Substance “BAG family molecular chaperone regulator 3 D41A, O95817” had an abundance fitness of -0.82 ± 0.23.

In turn, “BAG family molecular chaperone regulator 3 D41C, O95817” registered an abundance fitness of -0.641 ± 0.42.

“BAG family molecular chaperone regulator 3 D41E, O95817” had an abundance fitness of -0.874 ± 0.2.

“BAG family molecular chaperone regulator 3 D41G, O95817” yielded an abundance fitness of -0.621 ± 0.14.

The substance “BAG family molecular chaperone regulator 3 D41H, O95817” displayed an abundance fitness of -0.541 ± 0.095.

“BAG family molecular chaperone regulator 3 D41I, O95817” showed an abundance fitness of -0.622 ± 0.45.

In the case of “BAG family molecular chaperone regulator 3 D41K, O95817”, the abundance fitness is -1.05 ± 0.41.

Consider “BAG family molecular chaperone regulator 3 D41L, O95817”, for which the abundance fitness was -1.1 ± 0.17.

For “BAG family molecular chaperone regulator 3 D41M, O95817”, the abundance fitness was -1 ± 0.45.

With “BAG family molecular chaperone regulator 3 D41N, O95817”, the abundance fitness was -0.664 ± 0.12.

In turn, “BAG family molecular chaperone regulator 3 D41P, O95817” returned an abundance fitness of -0.65 ± 0.16.

In turn, “BAG family molecular chaperone regulator 3 D41Q, O95817” yielded an abundance fitness of -0.364 ± 0.32.

“BAG family molecular chaperone regulator 3 D41R, O95817” showed an abundance fitness of -0.59 ± 0.084.

“BAG family molecular chaperone regulator 3 D41S, O95817”: the abundance fitness was -0.868 ± 0.27.

Consider “BAG family molecular chaperone regulator 3 D41T, O95817”, for which the abundance fitness was -0.612 ± 0.23.

In turn, “BAG family molecular chaperone regulator 3 D41V, O95817” showed an abundance fitness of -0.851 ± 0.099.

For “BAG family molecular chaperone regulator 3 D41W, O95817”, the abundance fitness is -1.16 ± 0.44.

On to “BAG family molecular chaperone regulator 3 D51A, O95817”, for which the abundance fitness is -0.682 ± 0.12.

In the case of “BAG family molecular chaperone regulator 3 D51C, O95817”, the abundance fitness is -0.48 ± 0.22.

With “BAG family molecular chaperone regulator 3 D51F, O95817”, the abundance fitness is -0.234 ± 0.48.

In the case of “BAG family molecular chaperone regulator 3 D51G, O95817”, the abundance fitness is -0.62 ± 0.19.

On to “BAG family molecular chaperone regulator 3 D51H, O95817”, for which the abundance fitness is -0.262 ± 0.42.

With “BAG family molecular chaperone regulator 3 D51K, O95817”, the abundance fitness is -0.037 ± 0.3.

With “BAG family molecular chaperone regulator 3 D51L, O95817”, the abundance fitness was -0.859 ± 0.2.

Turning to “BAG family molecular chaperone regulator 3 D51M, O95817”, the abundance fitness was -0.658 ± 0.36.

Consider “BAG family molecular chaperone regulator 3 D51Q, O95817”, for which the abundance fitness is -0.602 ± 0.42.

In the case of “BAG family molecular chaperone regulator 3 D51R, O95817”, the abundance fitness was -0.568 ± 0.17.

For “BAG family molecular chaperone regulator 3 D51S, O95817”, the abundance fitness is -0.383 ± 0.14.

Consider “BAG family molecular chaperone regulator 3 D51T, O95817”, for which the abundance fitness was found to be 0.29 ± 0.25.

Substance “BAG family molecular chaperone regulator 3 D51V, O95817” registered an abundance fitness of -0.666 ± 0.12.

Take “BAG family molecular chaperone regulator 3 D51W, O95817”: the abundance fitness was -1.18 ± 0.23.

Turning to “BAG family molecular chaperone regulator 3 D51Y, O95817”, the abundance fitness is -0.45 ± 0.4.

“BAG family molecular chaperone regulator 3 E27A, O95817” returned an abundance fitness of -0.617 ± 0.18.

“BAG family molecular chaperone regulator 3 E27C, O95817” gave an abundance fitness of -0.789 ± 0.39.

As to “BAG family molecular chaperone regulator 3 E27D, O95817”, the abundance fitness is -0.472 ± 0.35.

As for “BAG family molecular chaperone regulator 3 E27G, O95817”, the abundance fitness is -0.54 ± 0.14.

“BAG family molecular chaperone regulator 3 E27K, O95817”: the abundance fitness was -0.42 ± 0.23.

For “BAG family molecular chaperone regulator 3 E27L, O95817”, the abundance fitness was -0.912 ± 0.2.

In turn, “BAG family molecular chaperone regulator 3 E27M, O95817” yielded an abundance fitness of -0.714 ± 0.19.

In the case of “BAG family molecular chaperone regulator 3 E27N, O95817”, the abundance fitness is -0.889 ± 0.22.

As to “BAG family molecular chaperone regulator 3 E27P, O95817”, the abundance fitness is -0.836 ± 0.39.

Regarding “BAG family molecular chaperone regulator 3 E27Q, O95817”, the abundance fitness is -0.222 ± 0.3.

As for “BAG family molecular chaperone regulator 3 E27R, O95817”, the abundance fitness is -0.742 ± 0.15.

On to “BAG family molecular chaperone regulator 3 E27S, O95817”, for which the abundance fitness is -0.596 ± 0.14.

As for “BAG family molecular chaperone regulator 3 E27T, O95817”, the abundance fitness was -0.555 ± 0.15.

On to “BAG family molecular chaperone regulator 3 E27V, O95817”, for which the abundance fitness was -0.96 ± 0.25.

In turn, “BAG family molecular chaperone regulator 3 E27W, O95817” came in with an abundance fitness of -0.988 ± 0.48.

Substance “BAG family molecular chaperone regulator 3 E57A, O95817” gave an abundance fitness of -0.317 ± 0.1.

Turning to “BAG family molecular chaperone regulator 3 E57C, O95817”, the abundance fitness was -0.564 ± 0.15.

Substance “BAG family molecular chaperone regulator 3 E57F, O95817” showed an abundance fitness of -0.052 ± 0.28.
